Values of other authors, collected in publication PMC7308888, “Development of a cell-free split-luciferase biochemical assay as a tool for screening for inhibitors of challenging protein-protein interaction targets” (Wellcome Open Research, 2020).
pKd: −log10 of the molar value.

Biological target: RAF (Homo sapiens) (UniProt P04049)

Substance: RAS (from UniProt P01116)
- pKd: 7.70
